Results reported in publication PMC4826270.

Target: SecA* (SecA795C labelled with 5-iodoacetamidofluorescein) (UniProt P10408)
Assay: other fluorescence titration; SecYEG variant in detergent titrated into 10 nM fluorescein-labelled SecA*; quenching read at 522 nm; 20 mM Tris pH 8, 130 mM NaCl, 10% glycerol, 0.02% DDM, 2 mM MgCl2, 1 mM AMP-PNP; fitted to a tight binding equation

SecYEDPEG (SecY_(R357E/P358D/G359P)EG) (from UniProt P0AGA2 1-443; P0AG96 1-127; P0AG99 1-110) (complex)
Kd: 0.135 µM

SecY_(prlA4-EDP)EG (SecY_(F286Y,I408N,R357E,P358D,G359P)EG) (from UniProt P0AGA2 1-443; P0AG96 1-127; P0AG99 1-110) (complex)
Kd: 0.042 µM

SecY_(prlA4)EG (SecY_(F286Y/I408N)EG) (from UniProt P0AGA2 1-443; P0AG96 1-127; P0AG99 1-110) (complex)
Kd: 0.036 µM
